Several values for one entry are separate records, joined by “and”; a condition that tells them apart may be missing. Equal entries are not always repeated. Where two headings read alike, the source gives them in different places.
How the values were obtained:
[1] = target: LINGO-1 ectodomain (free ectodomain made from LINGO-1-Fc by limited proteolysis with chymotrypsin) (Homo sapiens); experiment: SEC
[2] = target: LINGO-1 ectodomain (free ectodomain made from LINGO-1-Fc by limited proteolysis with chymotrypsin) (Homo sapiens); experiment: SEC-MALS
[3] = target: LINGO-1 ectodomain (free ectodomain made from LINGO-1-Fc by limited proteolysis with chymotrypsin) (Homo sapiens); experiment: SEC-MALS; remark: listed apart in the source

LINGO-1 ectodomain (free ectodomain made from LINGO-1-Fc by limited proteolysis with chymotrypsin) (Homo sapiens), sequence (Q96FE5 42-561): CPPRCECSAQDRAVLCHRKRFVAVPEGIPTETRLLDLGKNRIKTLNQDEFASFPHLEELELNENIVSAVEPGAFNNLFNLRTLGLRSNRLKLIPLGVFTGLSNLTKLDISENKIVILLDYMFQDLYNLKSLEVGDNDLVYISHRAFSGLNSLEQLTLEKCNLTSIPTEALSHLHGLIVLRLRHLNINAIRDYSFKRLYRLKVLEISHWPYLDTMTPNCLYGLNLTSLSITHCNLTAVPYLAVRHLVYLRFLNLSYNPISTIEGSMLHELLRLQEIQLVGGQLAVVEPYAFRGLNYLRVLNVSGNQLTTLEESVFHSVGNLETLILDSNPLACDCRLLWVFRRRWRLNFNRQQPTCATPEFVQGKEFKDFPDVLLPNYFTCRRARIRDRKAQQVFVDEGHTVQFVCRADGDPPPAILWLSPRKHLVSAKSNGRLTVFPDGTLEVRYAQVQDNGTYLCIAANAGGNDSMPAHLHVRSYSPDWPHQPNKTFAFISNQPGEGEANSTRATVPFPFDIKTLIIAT

reduction of the concatemer peaks [1] | stoichiometry N (LINGO-1 per mAb) [2] | stoichiometry N (LINGO-1 per mAb) [3] | Substance
50% |  |  | Li81 R18S/R54T mAb (antibody)
25% |  |  | Li81 R18S/S31R mAb (antibody)
 | 2 and 1 | 2 | Li81 R18S/S31R/R54T mAb (antibody)
